The values that follow come from article PMC10397321, “Energetic robustness to large scale structural fluctuations in a photosynthetic supercomplex” (Nature Communications, 2023).

One may read the stoichiometry N as a count of units in the complex or per binding partner.

The labels stand for the following.
B3: iron-stressed induced protein A (IsiA) (natural protein)
chain: not shown
notes: IsiA, iron-stressed induced protein A, Synechocystis sp; PCC 6803; six trans-membrane helices; model rebuilt from subunit X of PDB 6NWA; Each IsiA protomer coordinates 17 chlorophylls and 4 carotenoids; 18 copies form the ring around the PSI trimer; also called IsiA protomer; IsiA monomer; source: endogenous, purified as PSI-IsiA supercomplex from Synechocystis sp; PCC 6803 grown with low iron …

Series [1] has as its target B3. Briefly: cryo-EM structure; native PSI3-IsiA18 supercomplex co-purified from Synechocystis sp. PCC 6803 membranes in DDM; 30 mM Tricine-NaOH pH 8, 75 mM NaCl, 0.02% DDM; 1.5 mg chlorophyll/ml; vitrified on holey carbon grids; C3 symmetry expansion and multibody refinement. The following applies: both partners purified.
Series [2] concerns the molecule itself. Described as above.

B1: PsaJ subunit of photosystem I (natural protein, Synechocystis sp. PCC 6803, UniProt Q55329 1-40, looked up)
chain: MDGLKSFLSTAPVMIMALLTFTAGILIEFNRFYPDLLFHP
notes: PsaJ, PSI subunit, Synechocystis sp; PCC 6803; Stood in the assay as a subunit of PSI; also called PsaF/J; PsaJ/F; source: endogenous, purified as part of the PSI-IsiA supercomplex from Synechocystis sp; PCC 6803 (DDM-solubilised membranes, DEAE column, sucrose gradients)
Take B1: the binding result in series [1] is recorded as “binds”.

B2: PsaF subunit of photosystem I (natural protein, Synechocystis sp. PCC 6803, UniProt P29256 24-165, looked up)
chain: DDFANLTPCSENPAYLAKSKNFLNTTNDPNSGKIRAERYASALCGPEGYPHLIVDGRFTHAGDFLIPSILFLYIAGWIGWVGRSYLIEIRESKNPEMQEVVINVPLAIKKMLGGFLWPLAAVGEYTSGKLVMKDSEIPTSPR
notes: PsaF, PSI subunit, Synechocystis sp; PCC 6803; Stood in the assay as a subunit of PSI; also called PsaF/J; PsaJ/F; source: endogenous, purified as part of the PSI-IsiA supercomplex from Synechocystis sp; PCC 6803 (DDM-solubilised membranes, DEAE column, sucrose gradients)
With B2, the binding result in series [1] is reported as “binds”. For B3, the “stoichiometry N” value in series [2] was 18.
